Assay results published in the Human Domainome abundance scans (Beltran et al. 2025).

B1: Double-stranded RNA-binding protein Staufen homolog 1, residues 183 to 249; numbered along this chain, O95793 (parent)
chain: KSEISQVFEIALKRNLPVNFEVARESGPPHMKNFVTKVSVGEFVGEGEGKSKKISKKNAAIAVLEEL
B2: Far upstream element-binding protein 2, residues 142 to 214; numbered along this chain, Q92945 (parent)
chain: RTSMTEEYRVPDGMVGLIIGRGGEQINKIQQDSGCKVQISPDSGGLPERSVSLTGAPESVQKAKMMLDDIVSR

Variants of: B1
Experiment: abundance fitness (aPCA) (normalised: wild type 0, dead -1); higher = more abundant; growth selection in yeast, the domain comes from the species named
Conditions: Homo sapiens

Abundance fitness: each site, then its substitutions
I10: T -0.542
K1: S -0.316 | V -0.335 | G -0.175 | E -0.263 | W -0.514 | I -0.201 | R -0.178 | F -0.602 | A -0.436 | Y -0.211 | D -0.235 | H -0.738 | T -0.166 | C -0.177 | N -0.079 | L -0.3
E9: I -0.552 | M -0.317 | S -0.2 | C -0.33 | T -0.197 | F -0.545 | G -0.433 | L -0.36 | W -0.506 | R -0.232 | Q -0.038 | A -0.057 | P -0.716 | Y -0.338 | D -0.049 | V -0.517 | H -0.155
I4: D -0.388 | S -0.461 | E -0.44 | K -0.516 | F -0.534 | R -0.7 | G -0.735 | Y -0.74 | V -0.059 | C -0.417 | A -0.705 | M -0.292 | H -0.447 | W -0.359 | N -0.56 | T -0.391 | Q -0.661
A11: L -0.9 | D -0.679 | G 0.035 | C -0.825 | I -1.08 | S -0.358 | V -0.892 | Q -0.732 | F -1.13 | K -0.633 | R -0.829 | M -0.913 | T -0.653 | P -0.891 | N -0.564 | E -0.822
S2: D -0.382 | I -1.02 | G -0.136 | W -0.902 | F -0.709 | C -0.482 | T -0.235 | A -0.41 | E -0.381 | K -0.015 | V -0.7 | Q -0.305 | Y -0.653 | H -0.546 | P -0.328 | R -0.382
E3: M -0.509 | N -0.396 | K -0.194 | I -0.001 | P -0.023 | S -0.208 | W -0.309 | V -0.022 | F -0.177 | T -0.236 | H -0.219 | L -0.231 | R -0.551 | G -0.551 | Y -0.098 | A -0.049 | D -0.286 | Q -0.247 | C -0.205
Q6: G -0.634 | T -0.198 | R -0.097 | L -0.158 | N -0.494 | I -0.393 | F -0.653 | S -0.255 | M -0.169 | E -0.021 | P -0.697 | D -0.435 | C -0.283 | H -0.415
S5: P -0.528 | F -0.512
F8: R -0.129 | A -0.334 | W 0.064 | N -0.317 | V -0.203 | T -0.337 | M -0.143 | Y 0.129 | S -0.394 | L -0.112 | H -0.012 | G -0.332 | C -0.258 | P -0.457 | E -0.268 | D -0.408 | K -0.135
V7: P -0.68 | D -0.676 | G -0.626 | W -1.13 | H -0.857 | E -0.486 | M -0.295 | Q -0.681 | C -0.607 | Y -0.782 | I -0.24 | A -0.781 | L -0.142 | R -0.631 | T -0.717 | F -0.748 | S -0.656 | K -0.586

Variants of: B2
Experiment: as above
Conditions: Homo sapiens

Abundance fitness, by site and new letter:
L67: G -0.602 | H -0.564 | R -0.778 | P -0.652 | K -0.582 | M -0.055 | V -0.327 | S -0.553 | N -0.601 | Q -0.64 | T -0.562 | F -0.41 | I 0.041 | W -1.06 | Y -0.84 | D -0.462 | A -0.5
R73: F -0.162 | K 0.016 | I 0.027 | L -0.004 | V -0.074 | D 0.021 | T 0.124 | S 0.055 | A 0.034 | E -0.013 | W -0.201 | H -0.099 | G 0.177 | C 0.108
S72: L -0.103 | W -0.191 | P -0.282 | I -0.086 | F -0.176 | M -0.024 | A 0.016 | R 0.052 | C -0.116 | H 0.019 | V -0.085 | E 0.007 | K -0.048 | D -0.032 | N 0.026 | G 0.118 | Y -0.079 | T -0.042
I70: K -0.395 | C -0.141 | S -0.504 | L 0.051 | P -0.555 | R -0.568 | Y -0.153 | F -0.235 | W -0.319 | A -0.295 | T -0.344 | D -0.574 | G -0.497 | V -0.059 | E -0.416
M66: H -0.523 | I -0.254 | D -0.529 | E -0.514 | L -0.041 | C -0.427 | R -0.512 | N -0.688 | P -0.532 | T -0.661 | Q -0.301 | Y -0.379 | V -0.456 | S -0.428 | K -0.462 | W -0.473 | A -0.185 | F -0.383 | G -0.652
A63: M -1.24 | V -0.748 | Q -0.654 | T -0.69 | N -0.661 | S -0.782 | P -0.648 | C -0.222 | Y -0.811 | D -0.666 | H -0.528 | R -0.865 | G -0.447 | L -1.46 | W -1.55
V71: P -0.553 | I -0.057 | Q -0.296 | A -0.142 | F -0.157 | K -0.174 | L 0.001 | R -0.224 | C -0.052 | D -0.458 | T -0.032 | G -0.294 | Y -0.22 | M -0.037 | W -0.211 | N -0.461 | E -0.485
D69: C -0.133 | Y -0.27 | E -0.002 | V -0.181 | H -0.165 | G -0.057 | P -0.589 | W -0.321 | Q -0.097 | A -0.019 | N -0.094 | T -0.103 | I -0.262 | F -0.284 | M -0.13 | K -0.043 | S -0.122 | L -0.143
M65: R -0.023 | S 0.025 | A -0.008 | H -0.066 | W -0.211 | K 0.067 | F -0.136 | N 0.017 | V 0.008 | C 0.011 | Q 0.131 | I -0.025 | D 0.02
K64: Q -0.422 | P -0.687 | N -0.703 | M -0.457 | Y -0.926 | I -0.275 | V -0.465 | D -0.567 | E -0.653 | H -0.442 | W -0.662 | T -0.445 | C -0.554 | S -0.553 | G -0.757 | R -0.016 | A -0.558
D68: W -0.62 | A -0.188 | M -0.337 | F -0.469 | E -0.06 | H -0.241 | G -0.144 | I -0.494 | L -0.564 | N -0.007 | K -0.098 | C -0.372 | T -0.278 | S -0.138 | V -0.456 | P -0.882 | R -0.126 | Q -0.116
